Source: patent US7521053 (dated 2009)

T1: hAng-1 (human, UniProt Q15389)
T1 chain: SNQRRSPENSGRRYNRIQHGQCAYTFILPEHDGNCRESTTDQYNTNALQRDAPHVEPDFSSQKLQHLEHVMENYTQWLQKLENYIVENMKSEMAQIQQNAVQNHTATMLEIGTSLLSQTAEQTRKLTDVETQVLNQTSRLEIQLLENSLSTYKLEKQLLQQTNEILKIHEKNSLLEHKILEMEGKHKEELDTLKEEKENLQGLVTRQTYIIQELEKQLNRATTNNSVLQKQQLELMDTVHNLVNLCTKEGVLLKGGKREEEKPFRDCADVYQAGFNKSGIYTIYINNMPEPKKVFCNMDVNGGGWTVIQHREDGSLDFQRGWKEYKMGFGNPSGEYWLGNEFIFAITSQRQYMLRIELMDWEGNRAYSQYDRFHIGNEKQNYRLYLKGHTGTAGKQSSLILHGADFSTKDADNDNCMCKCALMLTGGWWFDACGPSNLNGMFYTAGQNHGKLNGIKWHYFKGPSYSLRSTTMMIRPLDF

T2: mAng-2 (mouse, UniProt O35608)
T2 chain: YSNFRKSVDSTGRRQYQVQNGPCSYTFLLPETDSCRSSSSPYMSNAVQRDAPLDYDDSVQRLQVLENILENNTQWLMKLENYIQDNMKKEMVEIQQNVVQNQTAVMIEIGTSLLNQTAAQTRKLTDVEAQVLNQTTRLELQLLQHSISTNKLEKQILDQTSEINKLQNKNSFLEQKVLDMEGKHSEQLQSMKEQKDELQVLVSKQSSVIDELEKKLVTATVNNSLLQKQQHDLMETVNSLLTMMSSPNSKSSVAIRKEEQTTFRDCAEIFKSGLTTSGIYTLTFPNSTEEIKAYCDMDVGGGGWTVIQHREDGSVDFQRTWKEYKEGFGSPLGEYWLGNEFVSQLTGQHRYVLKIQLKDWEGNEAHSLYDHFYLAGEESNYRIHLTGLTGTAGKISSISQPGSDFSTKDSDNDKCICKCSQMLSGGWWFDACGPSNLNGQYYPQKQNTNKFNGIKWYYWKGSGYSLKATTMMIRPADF

T3: hAng-2 (human, UniProt O15123)
T3 chain: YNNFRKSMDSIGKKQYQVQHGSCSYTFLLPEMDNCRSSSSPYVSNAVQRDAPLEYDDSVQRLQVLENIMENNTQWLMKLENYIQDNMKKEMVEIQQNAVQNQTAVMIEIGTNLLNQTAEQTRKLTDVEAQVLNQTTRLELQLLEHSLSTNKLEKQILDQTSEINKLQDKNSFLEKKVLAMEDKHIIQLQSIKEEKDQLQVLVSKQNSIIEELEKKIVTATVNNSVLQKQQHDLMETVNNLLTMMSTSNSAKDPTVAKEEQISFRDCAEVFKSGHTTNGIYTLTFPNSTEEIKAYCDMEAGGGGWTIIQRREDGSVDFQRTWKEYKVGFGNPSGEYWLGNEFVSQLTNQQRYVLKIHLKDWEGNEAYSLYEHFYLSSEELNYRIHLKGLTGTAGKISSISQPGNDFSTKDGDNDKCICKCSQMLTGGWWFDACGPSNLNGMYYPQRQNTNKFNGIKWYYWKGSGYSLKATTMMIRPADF


Assays:
hAng-1 [1] = target: T1, hAng-1; assay: competition ELISA (no inhibition)
mAng-2 = target: T2, mAng-2; assay: competition ELISA (Tie2-Fc)
hAng-2 = target: T3, hAng-2; assay: competition ELISA (Tie2-Fc)
hAng-1 [2] = target: T1, hAng-1; assay: competition ELISA (Tie2-Fc)

| Binder | binding result (hAng-1 [1]) | IC50 (mAng-2) | IC50 (hAng-2) | IC50 (hAng-1 [2]) |
| --- | --- | --- | --- | --- |
| Ab 553 (antibody, V domains shown) VH: QVQLVQSGAEVKKPGASVKVSCKASGYTFTSYAMHWVRQAPGQRLEWMGWINAGNGNTKYSQKFQGRVTITRDTSASTAYMELSGLRSEDTAVYYCARGVDDYGGNSWAFDIWGQGTMVTVSS VL: DIVMTQSPLSLPVTPGEPASISCRSSQSLLHSNGYNYLDWYLQKPGQSPQLLIYLGSNRASGVPDRFTGSGSATDFTLRISRVEAEDVGVYYCMQALQTPLTFGGGTKVEIK | no binding |  |  |  |
| Ab 555 (antibody, V domains shown) VH: QVQLQESGGGVVQPGRSLRLSCAASGFTFSSYAMHWVRQAPGKGLEWVAVISYDGSNKYYADSVKGRFTISRDNSKNTLYLQMNSLRAEDTAVYYCARSASDHYYDSSGYYSDAFDIWGQGTMVTVSS VL: not shown | no binding |  |  |  |
| Ab 540 (antibody, V domains shown) VH: QVQLVQSGAEVKKPGSSVKVSCKASGGTFSSYAISWVRQAPGQGLEWMGGIIPILGIANYAQKFQGRVTITADKFTSTAYMELSSLGSEDTAVYYCARAVPGTEDAFDIWGQGTMVTVSS VL: QSVLTQPPSVSAAPGQKVTISCSGSSSNIGANYVSWYQQLPGTAPKLLIYNNNKRPSGIPDRFSGSKSDTSATLGITGLQTGDEADYYCGAWDSSLSASWVFGGGTKLTVL | no binding |  |  |  |
| Ab 531 (antibody, V domains shown) VH: EVQLVQSGAEVKKPGSSVKVSCKASGGTFSSYAISWVRQAPGQGLEWMGGIIPILGIANYAQKFQGRVTITADKSTNTAYMELTSLTSDDTAVYYCARDREDTAMVFNYWGQGTLVTVSS VL: QSVLTQPPSVSAAPGQKVTVSCSGSSSNIGNNYVSWYQQLPGTAPKLLIYDNNKRPSGIPDRFSGSKSGTSATLGITGLQTGDEADYYCGTWDSSLSAFWVFGGGTKLTVL | no binding |  |  |  |
| Ab 544 (antibody, V domains shown) VH: QVQLVQSGAEVKKPGASVKVSCKASGGTFSSYAISWVRQAPGQGLEWMGGIIPIFGTANYAQKFQGRVTITADESTSTAYMELSSLRSEDTAVYYCARFESGYWGDAFDIWGQGTMVTVSS VL: not shown |  | 1.82 nM | 0.97 nM | 23.3 nM |
| Ab 565 (antibody, V domains shown) VH: QVQLVQSGAEVKKPGSSVKVSCKASGGTFSSYAISWVRQAPGQGLEWMGGIIPIFGTANYAQKFQGRVTITADESTSTAYMELSSLRSEDTAVYYCARSPIYYDILTGIDAFDIWGQGTMVTVSS VL: EIVLTQSPGTLSLSPGERATLSCRASQSVSSSSLAWYQQKPGQAPRLLVYAASSRATGIPDRFSGSGSGTDFTLTISRLEPEDFAVYYCQHYGSSPRTFGQGTKVEIK | no binding | 0.26 nM | 0.26 nM |  |
| Ab 533 (antibody, V domains shown) VH: EVQLVQSGGGVVQPGRSLRLSCAASGFTFSSYGMHWVRQAPGKGLEWVSYISSSGSTIYYADSVKGRFTISRDNAKNSLYLQMNSLRAEDTAVYYCARDLLDYDILTGYGYWGQGTLVTVSS VL: SYELTQPPSVSVSPGQTARITCSGDALPKQYAYWYQQKPGQAPVLVIYKDSERPSGIPERFSGSSSGTTVTLTISGVQAEDEADYYCQSADSSHVVFGGGTKLTVL | no binding | 0.08 nM | 0.3 nM |  |
| Ab 546 (antibody, V domains shown) VH: not shown VL: QSVLTQPSSVSEAPRQRVTISCSGSASNIGANGVSWYHQVPGKAPRLLLSHDGLVTSGVPDRLSVSKSGTSASLAISGLHSDDEGDYYCAVWDDSLNAVVFGGGTKLTVL | no binding | 1.09 nM | 0.37 nM |  |

More lines, now with the values ahead:

| binding result (hAng-1 [1]) | IC50 (mAng-2) | IC50 (hAng-2) | IC50 (hAng-1 [2]) | Binder |
| --- | --- | --- | --- | --- |
| no binding |  |  |  | Ab 537 (antibody, V domains shown) VH: QVQLVQSGAEVKKPGSSVKVSCKASGGTFSSYAISWVRQAPGQGLEWMGGIIPILGIANYAQKFQGRVTITADKSTSTAYMELSGLGSEDTAVYYCARGSSDAAVAGMWGQGTLVTVSS VL: QSVLTQPPSVSAAPGQDVTISCSGNNSNIGNNYVSWYQQVPGTAPKLLVYDNHKRPSGISDRFSGSKSDTSATLDITGLQPGDEADYYCGTWDTSLSANWVFGGGTKLTVL |
| no binding |  |  |  | Ab 535 (antibody, V domains shown) VH: QVQLVQSGAEVKKPGSSVKVSCKASGGTFSSYAISWVRQAPGQGLEWMGGIIPIFGTANYAQKFQGRVTITADKSTSTAYMELSSLRSEDTAVYYCAAFSPFTETDAFDIWGQGTMVTVSS VL: QSVLTQPPSVSAAPGQKVTISCSGSNSNIGNNFVSWYQQLPGTAPKLLVYDNNKRPSGIPDRFSGSKSGTSATLGITGLQTGDEADYYCGTWDSSLSAAEVVFGGGTKLTVL |
| no binding |  |  |  | Ab 528 (antibody, V domains shown) VH: QVQLVQSGAEVKKPGSSVKVSCKASGGTFSSYAISWVRQAPGQGLEWMGGIIPIFGTANYAQKFQGRVTITADESTSTAYMELSSLRSEDTAVYYCARGVVGDFDWLSFFDYWGQGTLVTVSS VL: SYELTQPPSVSVSPGQTASITCSGDKLGYTYTSWFQQKPGQSPVLVIFQDFKRPSGIPERFSGSNSGNTATLTISGTQAMDEADYYCQAWDSTTAVVFGTGTKVTVL |
| no binding |  |  |  | Ab 551 (antibody, V domains shown) VH: QVQLVQSGAEVKKPGSSVKVSCKASGGTFSSYAISWVRQAPGQGLEWMGGIIPIFGTANYAQKFQGRVTITADESTSTAYMELSSLRSEDTAVYYCARGYDFWSGYSLDAFDIWGQGTMVTVSS VL: not shown |
| no binding |  |  |  | Ab 543 (antibody, V domains shown) VH: QVQLVQSGAEVKKPGSSVKVSCKASGGTFSSYAISWVRQAPGQGLEWMGRIIPILGIANYAQKFQGRVTITADKSTSTAYMELSSLRSEDTAVYYCARPYYDFWSGPGGMDVWGQGTTVTVSS VL: not shown |
